Biological target: CLPX-3xFLAG (human, UniProt O76031 65-633)
Assay: co-IP

Chain of CLPX-3xFLAG (O76031 65-633): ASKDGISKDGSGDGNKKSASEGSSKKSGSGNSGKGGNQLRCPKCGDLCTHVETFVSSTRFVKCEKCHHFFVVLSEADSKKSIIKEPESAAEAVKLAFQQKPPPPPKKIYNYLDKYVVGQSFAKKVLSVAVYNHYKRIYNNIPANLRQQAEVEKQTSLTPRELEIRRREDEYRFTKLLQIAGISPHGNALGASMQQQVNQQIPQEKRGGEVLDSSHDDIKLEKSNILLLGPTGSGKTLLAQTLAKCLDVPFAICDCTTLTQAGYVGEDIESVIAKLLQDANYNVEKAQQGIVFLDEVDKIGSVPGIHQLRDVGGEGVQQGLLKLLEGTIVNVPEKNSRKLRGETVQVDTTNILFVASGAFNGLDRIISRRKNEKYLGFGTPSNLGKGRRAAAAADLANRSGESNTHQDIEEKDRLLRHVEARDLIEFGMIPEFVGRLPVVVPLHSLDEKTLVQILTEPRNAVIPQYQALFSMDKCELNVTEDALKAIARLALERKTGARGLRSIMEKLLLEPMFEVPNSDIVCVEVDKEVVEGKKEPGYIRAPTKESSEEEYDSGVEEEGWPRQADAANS

Binder | binding result
POLDIP2 H225A, residues 52-368 (natural protein, human, UniProt Q9Y2S7 52-368, looked up) SSRNRPEGKVLETVGVFEVPKQNGKYETGQLFLHSIFGYRGVVLFPWQARLYDRDVASAAPEKAENPAGHGSKEVKGKTHTYYQVLIDARDCPHISQRSQTEAVTFLANHDDSRALYAIPGLDYVSHEDILPYTSTDQVPIQHELFERFLLYDQTKAPPFVARETLRAWQEKNAPWLELSDVHRETTENIRVTVIPFYMGMREAQNSHVYWWRYCIRLENLDSDVVQLRERHWRIFSLSGTLETVRGRGVVGREPVLSKEQPAFQYSSHVSLQASSGHMWGTFRFERPDGSHFDVRIPPFSLESNKDEKTPPSGLHW | binds
POLDIP2 (DNA polymerase delta interacting protein 2), residues 52-368 (natural protein, human, UniProt Q9Y2S7 52-368, looked up) SSRNRPEGKVLETVGVFEVPKQNGKYETGQLFLHSIFGYRGVVLFPWQARLYDRDVASAAPEKAENPAGHGSKEVKGKTHTYYQVLIDARDCPHISQRSQTEAVTFLANHDDSRALYAIPGLDYVSHEDILPYTSTDQVPIQHELFERFLLYDQTKAPPFVARETLRAWQEKNHPWLELSDVHRETTENIRVTVIPFYMGMREAQNSHVYWWRYCIRLENLDSDVVQLRERHWRIFSLSGTLETVRGRGVVGREPVLSKEQPAFQYSSHVSLQASSGHMWGTFRFERPDGSHFDVRIPPFSLESNKDEKTPPSGLHW | binds

Source: doi:10.1101/2024.07.05.602318 (bioRxiv, 2024)
